The nature of this data set: yeast display, Sf9 membrane polyspecificity reagent, FACS + sequencing; frameworks hold sequencing errors. The procedure, abridged: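 After 36–48 hours of galactose induction, yeast (Saccharomyces cerevisiae BJ5465) displaying a synthetic nanobody library were stained at 4 °C for 1 hour with 10% biotinylated, detergent-solubilized Sf9 membrane reagent. Streptavidin microbeads enriched the stained cells before FACS sorting into low and high (top ~1%) gates on anti-HA and streptavidin fluorescence. Each clone's polyreactivity label reflects its gate of origin.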
Turning to “QVQLVESGGGLVQAGGSLRLSCAASGNTLDAYTMGWYRQAPGKERELVAAISRGGTRTYYADSVKGRFTISRDNAKNTVYLQMNSLKPEDTAVYYCNKQFPYSKYYIMGYWGQGTQVTVSS”, the “polyreactivity (PSR sort gate)” value is “high polyreactivity”.

Consider “QVQLVESGGGLVQAGGSLRLSCAASGNTLHRYVMGWYRPAPGKERELVAVITRGTSTYYADSVKGRFTISRDNAKNTVYLQMNSLKPEDTAVYYCAARYTFPYSRYDYWGQGTQVTVSS”, for which the “polyreactivity (PSR sort gate)” value is recorded as “low polyreactivity”.

As to “QVQLVESGGGLVQAGGSLRLSCAASGNTLQYYAMGWYRQAPGKERELVAAITTGGSTNYADSVKARFTISRDNAKNTGYLQMNSLKPEDTAVYYCAARGGVSKRISDYWGQGTQVTVSS”, the “polyreactivity (PSR sort gate)” value was “low polyreactivity”. To “QVQLVESGGGLVQAGGSLRLSCAASGNTLVKNAMGWYRQAPGKERELVAANSSSGGRTYYADSVKGRFTISRDNAKTTVYLQLNSLKPEDTAVYYCAARYPSGYYYWGQGTQVTVSS” belongs “high polyreactivity”; to “QVQLVESGGGLVQAGGSLRLSCAASGNTLYQYAMGWYRQAPGKERELVASITWSGSSTYYADSVKGRFTISRDNAKNTVYVQMNSLKPEDPAVYYCAAYGYHRDYLYDYWGQGTQVTVSS”, “low polyreactivity”. “QVQLVESGGGLVQAGGSLRLSCAASGNTSPYSAMGWYRQAPGKEREWVAGISSGGTTNYADSVKGRFTISRDNAKNTVDLQMNSLKPVDTAVYYCAADEWYVECLGYFFAYDYWGQGTQVTVSS”: the “polyreactivity (PSR sort gate)” value is on record as “low polyreactivity”.

“QVQLVESGGGLVQAGGSLRLSCAASGNTYDPNAMGWYRQAPGKERELVAAISSDGSTKYADSVKGRFTISRDNAKNTVYLQMNSLKPEDTAVYYCAADHGYWYWYGGDNSWGQGTQVTVSS”: the “polyreactivity (PSR sort gate)” value is recorded as “low polyreactivity”. The value for “QVQLVESGGGLVQAGGSLRLSCAASGNTYGYNAMGWYRQAPGKERELVASITWSGGSTYYADSVKGRFTISRDNAKNTVYLQMNSLKPEDTAVYYCNADVRYGRDHWGQGTQVTVSS” was “low polyreactivity”. Turning to “QVQLVESGGGLVQAGGSLRLSCAASGPIFKRNAMGWYRQAPGKERELVAAISGSGGRTNYADSVKGRFTISRDTAKNTVYLQMNSLKPEDTAVYYCAARANFFGWPKSYYYLGQGTQVTVSS”, the “polyreactivity (PSR sort gate)” value is “high polyreactivity”. In the case of “QVQLVESGGGLVQAGGSLRLSCAASGPIFLRYAIGWYRQAPGKERVLVAVISRSGSSTYYADSVKGRFTISRDNAKNTVYLQMNSLKPEDTAFYHCAAGYSWGYSSQKLRYGYLGQGTQVTVSS”, the “polyreactivity (PSR sort gate)” value is “high polyreactivity”. The value for “QVQLVESGGGLVQAGGSLRLSCAASGPILGQYAMGWYRQAPGKDRELVAAITYSGGRTYYADSVKGRFTLSRDNAKNTVYLQMNSLKPEDTAVYYCAARGRASVERRGGYYYWGQGTQVTVSS” was “high polyreactivity”; that for “QVQLVESGGGLVQAGGSLRLSCAASGPTFFLYDMGWYRQAPGKERELVAAITSSGGDTYYADSVKGRFTISRDNAKNTVYLQMNSLKPEDTAVYYCAAEVWFPDRWMDYWGQGTQVTVSS” was “high polyreactivity”.

“QVQLVESGGGLVQAGGSLRLSCAASGPTFPFNAMVWYRQAPGKERELVAAISWRDGRTYYADSVKGRFTISRDNAKNTVYLQMNSLKPEDTAVYYCNVVKRRSDWGMVYWGQGTQVTVSS”: the “polyreactivity (PSR sort gate)” value is given as “high polyreactivity”. In the case of “QVQLVESGGGLVQAGGSLRLSCAASGPTFYRYAMGWYRQAPGKERELVAAISSSGGSTYYADSVKGRFTISRDNANNTVYLQMNSLKPEDTAVYYCATGYRYASYLCNYWGHGTQVTVSS”, the “polyreactivity (PSR sort gate)” value is given as “high polyreactivity”. To “QVQLVESGGGLVQAGGSLRLSCAASGPTIDLYAMGCYRQAPGKERELVATIRSDGSTTYADSVKGRFTISRDNAKNTVYLQLNSLKPEDTAVYDCAAAFRSGFSSSTTPVQSDWGQGTQVTVSS” belongs “low polyreactivity”; to “QVQLVESGGGLVQAGGSLRLSCAASGPTLRSYAMGWYRQAPGKERELVAAITRASGARTFYADSVKGRFTISRDSAKNTVYLQMNSLKPEDSAGYYCTAVGRSDLFEYWGQGTQVTVSS”, “high polyreactivity”. The value for “QVQLVESGGGLVQAGGSLRLSCAASGQIFFVYAMGRYRQAPGKESELVAAISFSAGRTYYADSVKGRFTISRDNAKNTVYLQMNSLKPEDTAVYYCNALRQDTGHYPYDYWGQGTQVTVSS” was “low polyreactivity”. To “QVQLVESGGGLVQAGGSLRLSCAASGRICDYNVMGWYRQAPGKERELVADITSSGGSTYYADSVKGRFTISRDNAKNTVYLQMNSLKPEDTAVYYCYISYFTFYDDFYYWGQGTQVTVSS” belongs “low polyreactivity”; to “QVQLVESGGGLVQAGGSLRLSCAASGRICVTYAIGRYRQAPGKERELVAASTYSGGSTYYADSVKGRFTISRDNAKNTVYLQMNSLKPEDTAVYYCGWTYHYHRESWGQGTQVTVSS”, “low polyreactivity”; to “QVQLVESGGGLVQAGGSLRLSCAASGRIDLDYDMGWYRPAAGKERELVATISSGGSTNYADSVKGRFTISRDNAKNTVYLQMNSLKPDDTAVYYCNKDYHVRYYYWGQGTQVTVSS”, “low polyreactivity”. For “QVQLVESGGGLVQAGGSLRLSCAASGRIFAAYAMGWYRQAPGKERELVATITRGGSTYYADSVKGRFTISRDNAKNTVYLQMNSLKQKDTAVYYCAVKRGFTQYKPFNYWGQGTQVTVSS”, the “polyreactivity (PSR sort gate)” value is listed as “high polyreactivity”. The value for “QVQLVESGGGLVQAGGSLRLSCAASGRIFADYAMGWYRQAPGKEREMVADIRQSGGRTYYADSVKGRFTISRDNAKNTVYLQMNSLKPEDTAVYYCATEYGSLGDYSGKYDYWGQGTQVTVSS” was “low polyreactivity”; that for “QVQLVESGGGLVQAGGSLRLSCAASGRIFAFSAMGWSRQAPGKERELVAAISSGGSTYYADSVKGRFTISRDNAKNTVYLQMNSLKPEDTAVYYCAASGLYYYRYRYYYWGQGTQVTVSS” was “high polyreactivity”. The value for “QVQLVESGGGLVQAGGSLRLSCAASGRIFAFYAMGWYRQAPGKERELVAAITSGGSTKYADSVNGRFSISRDNAKNTVYLLMNSMKPEDTAVYYCAARYRWQFRSQYDYWGQGTQVTVSS” was “high polyreactivity”; that for “QVQLVESGGGLVQAGGSLRLSCAASGRIFAFYVMGWYRQAPGKERELVAAITSGGNTNYADSVKGRFTISRDNAKNTVYLQMNSLKPEDTAVYYCARAWLGQYTLGTYYYWGQGTQVTVSS” was “low polyreactivity”; that for “QVQLVESGGGLVQAGGSLRLSCAASGRIFAGNAMGWYRQAPGKERELVAAISNGGSTYYADSVKGRFTISRDNAKNTVYLQMNSLKPEDTAVYYCNARTRLRKYQYYYWGQGTQVTVSS” was “high polyreactivity”.

In the case of “QVQLVESGGGLVQAGGSLRLSCAASGRIFAGYAMGWSRQAPGKERELVASIRSSGSTYYADSVKGRFTISRDNAKNTVYLQMNSLKPEDTAVYYCATTGRRWYYPYHYWGQGTQVTVSS”, the “polyreactivity (PSR sort gate)” value is on record as “high polyreactivity”. To “QVQLVESGGGLVQAGGSLRLSCAASGRIFAGYAMGWYRKAPGKERELVASIRSSGSTYYADSVKGRFTISRDNAKNTVYLQMNSLKPEDTAVYYCAARSGYFRSRFDYWGQGTQVTVSS” belongs “high polyreactivity”; to “QVQLVESGGGLVQAGGSLRLSCAASGRIFAGYAMGWYRQAPGKERELVATITRGGSTNYADSVKRPFTISRDNAKNTVYLQMNSLKPDDTAVYYCNADIRRHGGYAHEYWGQGTQVTVSS”, “low polyreactivity”; to “QVQLVESGGGLVQAGGSLRLSCAASGRIFAGYPMGWYRQAPGKERELVATFTRGGSTNYADSVKRPFTISRDNAKNSVYLQMNSLKPEDTAVYYCNAAIRRHGGYAHEYWGQGTQVTVSS”, “low polyreactivity”. In the case of “QVQLVESGGGLVQAGGSLRLSCAASGRIFAGYPMGWYRQAPGKERELVATITRGGSTNYADSVKRPFTISRDNAKYTVYLQMNSLKPEDTAVYYCNADPGGRYPRRGYAHEGDYWGQGTQVTVSS”, the “polyreactivity (PSR sort gate)” value is given as “low polyreactivity”. To “QVQLVESGGGLVQAGGSLRLSCAASGRIFAHYEMGWYRQAPGKERELVAAISSGGSTYYADSVKGRFTISRDNAKNTVYLQMNSLKPEDTAVYYCNKRPVRRKYDYWGQGTQVTVSS” belongs “low polyreactivity”; to “QVQLVESGGGLVQAGGSLRLSCAASGRIFAIYAMGWYRQAPGKERELVAGITYSAGSTYYADSVKGRFTISRDNAKNTVYLQMNSLKREDTAVYYCAALEYTSHRYGYDYWGQGTQVTVSS”, “low polyreactivity”; to “QVQLVESGGGLVQAGGSLRLSCAASGRIFALYAMGWYRQAPGKDRELVAAITSSDGSTYYADSVKGRFTISRDIAKNSVYFQMKSLKPEDTAVYYSAAVWWRYYQDPYYYWGQGTQVTVSS”, “low polyreactivity”. To “QVQLVESGGGLVQAGGSLRLSCAASGRIFALYAMGWYRQAPGKERELVATITRSGTNTYYADSVKGRFTISRDNAKNTVYLQMNRLKPEDTAVYYCAAYRFWQRTMGYWGQGTQVTVSS” belongs “high polyreactivity”; to “QVQLVESGGGLVQAGGSLRLSCAASGRIFAQNAMGWYRPAPGKERELVAAISWGGGGTYYADSVKGRFTISRDNAKNTVYLQMNSLKPEDTAVYYCAADSPGFGAWDRYEYWGQGTQVTVSS”, “low polyreactivity”. To “QVQLVESGGGLVQAGGSLRLSCAASGRIFARNAMGSYRQAPGKERELVATIRVGGGSTYYADSVKGRFTISRDNAKNTVYLQMNSLKPEDTAVYYCAVRQLYSYPGDRRGYYWGQGTQVTVSS” belongs “low polyreactivity”; to “QVQLVESGGGLVQAGGSLRLSCAASGRIFARYVMGWYRQAPGKERELVAAISPSGSRTYYADSVKGRFTISRDNAKNTVYLQMNSLKPEDTAVYYCAATGVYTKNPRGMDYWGQGTQVTVSS”, “high polyreactivity”. Turning to “QVQLVESGGGLVQAGGSLRLSCAASGRIFASKAMGWYRQAPGKERELVAAITTTGGSTYYADSVKGRFTISRDNAKNTVYLQMNSLKPEDTAVYYCASRAIPRVRRYGSMNYWGQGTQVTVSS”, the “polyreactivity (PSR sort gate)” value is reported as “high polyreactivity”. As to “QVQLVESGGGLVQAGGSLRLSCAASGRIFASYAMGWYRQAPGKERELVAAISAGGGSRTYYADSVKGRFTISRDNAKNTVYLQMNSLKPEDTAVYYCNTANSWQRQYYYWGQGTQVTVSS”, the “polyreactivity (PSR sort gate)” value is listed as “high polyreactivity”. The value for “QVQLVESGGGLVQAGGSLRLSCAASGRIFASYAMGWYRQAPGKERELVAAISLSGGSTYYADSVKGRFTISRDNAKNTVYLQMNSLKPEDTAVYYCNARAIGWRIYDYWGQGTQVTVSS” was “high polyreactivity”.

Values taken from the nanobody polyreactivity screen of Harvey et al. (2022).
